Measurements from FireProtDB (doi:10.1021/bi991422s).

Conditions: Aspergillus oryzae (strain ATCC 42149 / RIB 40), pH 7, DSC, MOPS 30 mM, reversible: yes, whole UniProt chain shown; for denaturant m value / denaturant midpoint (higher = more stable) / unfolding free energy: Urea

B1: Guanyl-specific ribonuclease T1 wild type, P00651 (protein)
chain: MMYSKLLTLTTLLLPTALALPSLVERACDYTCGSNCYSSSDVSTAQAAGYQLHEDGETVGSNSYPHKYNNYEGFDFSVSSPYYEWPILSSGDVYSGGSPGADRVVFNENNQLAGVITHTGASGNNFVECT
denaturant m value (5 °C): 1.18 kcal/mol/M | denaturant midpoint (higher = more stable) (5 °C): 7.04 M | unfolding free energy (5 °C): 34.8 kJ/mol | denaturant m value (10 °C): 1.18 kcal/mol/M | denaturant midpoint (higher = more stable) (10 °C): 6.7 M | unfolding free energy (10 °C): 32.9 kJ/mol | denaturant m value (15 °C): 1.14 kcal/mol/M | denaturant midpoint (higher = more stable) (15 °C): 6.43 M | unfolding free energy (15 °C): 30.7 kJ/mol | denaturant m value (20 °C): 1.18 kcal/mol/M | denaturant midpoint (higher = more stable) (20 °C): 5.71 M | unfolding free energy (20 °C): 28.1 kJ/mol | denaturant m value (25 °C): 1.17 kcal/mol/M | denaturant midpoint (higher = more stable) (25 °C): 5.2 M | unfolding free energy (25 °C): 25.5 kJ/mol | Tm (Thermal): 50.8 °C | unfolding enthalpy (calorimetric) (Thermal): 404 kJ/mol
